# From the supplement of paper PMC10567573
# B1: PRKX (parent)
# chain: KLLVVDRTRRLGNMKNGANDVKHH
# Variants of: B1
# Assay: protein stability index of a GFP-peptide fusion (GPS, HEK-293T) (PSI 1-6); higher = more stable
# Details: c terminus: a fixed tail appended
# 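Note: lentivirally expressed fusions sorted by FACS into six bins by GFP to DsRed ratio, PSI derived from sequencing read proportions per bin multiplied by bin number.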
row,Variant,protein stability index
1,KLLVCDRTRRLGNMKNGANDVKHH,3.72
2,KLLVDDRTRRLGNMKNGANDVKHH,4.07
3,KLLVEDRTRRLGNMKNGANDVKHH,4.08
4,KLLVFDRTRRLGNMKNGANDVKHH,2.65
5,KLLVGDRTRRLGNMKNGANDVKHH,3.32
6,KLLVHDRTRRLGNMKNGANDVKHH,3.41
7,KLLVIDRTRRLGNMKNGANDVKHH,2.33
8,KLLVKDRTRRLGNMKNGANDVKHH,3.56
9,KLLVLDRTRRLGNMKNGANDVKHH,2.6
10,KLLVMDRTRRLGNMKNGANDVKHH,2.95
11,KLLVNDRTRRLGNMKNGANDVKHH,3.3
12,KLLVPDRTRRLGNMKNGANDVKHH,3.62
13,KLLVQDRTRRLGNMKNGANDVKHH,3.11
14,KLLVRDRTRRLGNMKNGANDVKHH,3.31
15,KLLVSDRTRRLGNMKNGANDVKHH,3.62
16,KLLVTDRTRRLGNMKNGANDVKHH,3.67
17,KLLVWDRTRRLGNMKNGANDVKHH,2.33
18,KLLVYDRTRRLGNMKNGANDVKHH,2.61
19,KLLVVARTRRLGNMKNGANDVKHH,2.19
20,KLLVVCRTRRLGNMKNGANDVKHH,2.01
21,KLLVVERTRRLGNMKNGANDVKHH,2.94
22,KLLVVFRTRRLGNMKNGANDVKHH,3.18
23,KLLVVGRTRRLGNMKNGANDVKHH,2.29
24,KLLVVHRTRRLGNMKNGANDVKHH,2.82

row,Variant,protein stability index
1,KLLVVIRTRRLGNMKNGANDVKHH,2.87
2,KLLVVKRTRRLGNMKNGANDVKHH,2.55
3,KLLVVLRTRRLGNMKNGANDVKHH,1.98
4,KLLVVMRTRRLGNMKNGANDVKHH,1.97
5,KLLVVNRTRRLGNMKNGANDVKHH,2.95
6,KLLVVPRTRRLGNMKNGANDVKHH,2.94
7,KLLVVQRTRRLGNMKNGANDVKHH,2.03
8,KLLVVRRTRRLGNMKNGANDVKHH,2.14
9,KLLVVSRTRRLGNMKNGANDVKHH,2.81
10,KLLVVTRTRRLGNMKNGANDVKHH,2.52
11,KLLVVVRTRRLGNMKNGANDVKHH,2.26
12,KLLVVWRTRRLGNMKNGANDVKHH,1.69
13,KLLVVYRTRRLGNMKNGANDVKHH,2.29
14,KLLVVDATRRLGNMKNGANDVKHH,3.79
15,KLLVVDCTRRLGNMKNGANDVKHH,2.6
16,KLLVVDDTRRLGNMKNGANDVKHH,4.05
17,KLLVVDETRRLGNMKNGANDVKHH,3.7
18,KLLVVDFTRRLGNMKNGANDVKHH,1.83
19,KLLVVDGTRRLGNMKNGANDVKHH,3.22
20,KLLVVDHTRRLGNMKNGANDVKHH,3.03
21,KLLVVDITRRLGNMKNGANDVKHH,2.13
22,KLLVVDKTRRLGNMKNGANDVKHH,2.56
23,KLLVVDLTRRLGNMKNGANDVKHH,2.92
24,KLLVVDMTRRLGNMKNGANDVKHH,2.43

row,Variant,protein stability index
1,KLLVVDNTRRLGNMKNGANDVKHH,3.25
2,KLLVVDPTRRLGNMKNGANDVKHH,3.62
3,KLLVVDQTRRLGNMKNGANDVKHH,3.97
4,KLLVVDSTRRLGNMKNGANDVKHH,3.21
5,KLLVVDTTRRLGNMKNGANDVKHH,3.18
6,KLLVVDVTRRLGNMKNGANDVKHH,2.81
7,KLLVVDWTRRLGNMKNGANDVKHH,2.5
8,KLLVVDYTRRLGNMKNGANDVKHH,2.5
9,KLLVVDRARRLGNMKNGANDVKHH,3.03
10,KLLVVDRCRRLGNMKNGANDVKHH,2.98
11,KLLVVDRDRRLGNMKNGANDVKHH,3.46
12,KLLVVDRERRLGNMKNGANDVKHH,3.38
13,KLLVVDRFRRLGNMKNGANDVKHH,2.56
14,KLLVVDRGRRLGNMKNGANDVKHH,2.55
15,KLLVVDRHRRLGNMKNGANDVKHH,2.97
16,KLLVVDRIRRLGNMKNGANDVKHH,1.97
17,KLLVVDRKRRLGNMKNGANDVKHH,2.88
18,KLLVVDRLRRLGNMKNGANDVKHH,2.47
19,KLLVVDRMRRLGNMKNGANDVKHH,2.54
20,KLLVVDRNRRLGNMKNGANDVKHH,2.78
21,KLLVVDRPRRLGNMKNGANDVKHH,2.74
22,KLLVVDRQRRLGNMKNGANDVKHH,3.08
23,KLLVVDRRRRLGNMKNGANDVKHH,2.86
24,KLLVVDRSRRLGNMKNGANDVKHH,2.67

row,Variant,protein stability index
1,KLLVVDRVRRLGNMKNGANDVKHH,3
2,KLLVVDRWRRLGNMKNGANDVKHH,2.78
3,KLLVVDRYRRLGNMKNGANDVKHH,2.67
4,KLLVVDRTARLGNMKNGANDVKHH,3.11
5,KLLVVDRTCRLGNMKNGANDVKHH,2.21
6,KLLVVDRTDRLGNMKNGANDVKHH,3.4
7,KLLVVDRTERLGNMKNGANDVKHH,3.5
8,KLLVVDRTFRLGNMKNGANDVKHH,2.76
9,KLLVVDRTGRLGNMKNGANDVKHH,3.13
10,KLLVVDRTHRLGNMKNGANDVKHH,3.07
11,KLLVVDRTIRLGNMKNGANDVKHH,2.73
12,KLLVVDRTKRLGNMKNGANDVKHH,2.99
13,KLLVVDRTLRLGNMKNGANDVKHH,2.69
14,KLLVVDRTMRLGNMKNGANDVKHH,2.99
15,KLLVVDRTNRLGNMKNGANDVKHH,2.81
16,KLLVVDRTPRLGNMKNGANDVKHH,3.45
17,KLLVVDRTQRLGNMKNGANDVKHH,3.38
18,KLLVVDRTSRLGNMKNGANDVKHH,3.33
19,KLLVVDRTTRLGNMKNGANDVKHH,3.21
20,KLLVVDRTVRLGNMKNGANDVKHH,2.6
21,KLLVVDRTWRLGNMKNGANDVKHH,2.12
22,KLLVVDRTYRLGNMKNGANDVKHH,2.63
23,KLLVVDRTRALGNMKNGANDVKHH,3.06
24,KLLVVDRTRCLGNMKNGANDVKHH,2.61

row,Variant,protein stability index
1,KLLVVDRTRDLGNMKNGANDVKHH,3.68
2,KLLVVDRTRELGNMKNGANDVKHH,4.05
3,KLLVVDRTRFLGNMKNGANDVKHH,2.31
4,KLLVVDRTRGLGNMKNGANDVKHH,3.35
5,KLLVVDRTRHLGNMKNGANDVKHH,3.04
6,KLLVVDRTRILGNMKNGANDVKHH,2.94
7,KLLVVDRTRKLGNMKNGANDVKHH,2.84
8,KLLVVDRTRLLGNMKNGANDVKHH,2.82
9,KLLVVDRTRMLGNMKNGANDVKHH,2.85
10,KLLVVDRTRNLGNMKNGANDVKHH,3.4
11,KLLVVDRTRPLGNMKNGANDVKHH,3.43
12,KLLVVDRTRQLGNMKNGANDVKHH,3.65
13,KLLVVDRTRSLGNMKNGANDVKHH,4.15
14,KLLVVDRTRTLGNMKNGANDVKHH,3.83
15,KLLVVDRTRVLGNMKNGANDVKHH,3.08
16,KLLVVDRTRWLGNMKNGANDVKHH,2.8
17,KLLVVDRTRYLGNMKNGANDVKHH,2.72
18,KLLVVDRTRRAGNMKNGANDVKHH,3.23
19,KLLVVDRTRRCGNMKNGANDVKHH,2.57
20,KLLVVDRTRRDGNMKNGANDVKHH,3.84
21,KLLVVDRTRREGNMKNGANDVKHH,3.7
22,KLLVVDRTRRFGNMKNGANDVKHH,2.93
23,KLLVVDRTRRGGNMKNGANDVKHH,3.21
24,KLLVVDRTRRHGNMKNGANDVKHH,3.64

row,Variant,protein stability index
1,KLLVVDRTRRIGNMKNGANDVKHH,3.22
2,KLLVVDRTRRKGNMKNGANDVKHH,2.93
3,KLLVVDRTRRMGNMKNGANDVKHH,2.77
4,KLLVVDRTRRNGNMKNGANDVKHH,3.6
5,KLLVVDRTRRPGNMKNGANDVKHH,3.57
6,KLLVVDRTRRQGNMKNGANDVKHH,3.42
7,KLLVVDRTRRRGNMKNGANDVKHH,3.65
8,KLLVVDRTRRSGNMKNGANDVKHH,3.27
9,KLLVVDRTRRTGNMKNGANDVKHH,3.47
10,KLLVVDRTRRVGNMKNGANDVKHH,3.09
11,KLLVVDRTRRWGNMKNGANDVKHH,2.67
12,KLLVVDRTRRYGNMKNGANDVKHH,3.1
13,KLLVVDRTRRLANMKNGANDVKHH,2.84
14,KLLVVDRTRRLCNMKNGANDVKHH,2.84
15,KLLVVDRTRRLDNMKNGANDVKHH,3.12
16,KLLVVDRTRRLENMKNGANDVKHH,3.38
17,KLLVVDRTRRLFNMKNGANDVKHH,2.51
18,KLLVVDRTRRLHNMKNGANDVKHH,3
19,KLLVVDRTRRLINMKNGANDVKHH,2.04
20,KLLVVDRTRRLKNMKNGANDVKHH,2.48
21,KLLVVDRTRRLLNMKNGANDVKHH,2.83
22,KLLVVDRTRRLMNMKNGANDVKHH,2.24
23,KLLVVDRTRRLNNMKNGANDVKHH,2.6
24,KLLVVDRTRRLPNMKNGANDVKHH,3.19

row,Variant,protein stability index
1,KLLVVDRTRRLQNMKNGANDVKHH,3.19
2,KLLVVDRTRRLRNMKNGANDVKHH,2.67
3,KLLVVDRTRRLSNMKNGANDVKHH,3.02
4,KLLVVDRTRRLTNMKNGANDVKHH,2.95
5,KLLVVDRTRRLVNMKNGANDVKHH,2.67
6,KLLVVDRTRRLWNMKNGANDVKHH,2.19
7,KLLVVDRTRRLYNMKNGANDVKHH,2.5
8,KLLVVDRTRRLGAMKNGANDVKHH,3.44
9,KLLVVDRTRRLGCMKNGANDVKHH,2.62
10,KLLVVDRTRRLGDMKNGANDVKHH,3.46
11,KLLVVDRTRRLGEMKNGANDVKHH,3.6
12,KLLVVDRTRRLGFMKNGANDVKHH,2.02
13,KLLVVDRTRRLGGMKNGANDVKHH,2.84
14,KLLVVDRTRRLGHMKNGANDVKHH,2.81
15,KLLVVDRTRRLGIMKNGANDVKHH,2.54
16,KLLVVDRTRRLGKMKNGANDVKHH,2.81
17,KLLVVDRTRRLGLMKNGANDVKHH,2.31
18,KLLVVDRTRRLGMMKNGANDVKHH,2.51
19,KLLVVDRTRRLGPMKNGANDVKHH,2.75
20,KLLVVDRTRRLGQMKNGANDVKHH,2.6
21,KLLVVDRTRRLGRMKNGANDVKHH,2.75
22,KLLVVDRTRRLGSMKNGANDVKHH,2.91
23,KLLVVDRTRRLGTMKNGANDVKHH,3.09
24,KLLVVDRTRRLGVMKNGANDVKHH,3.02

row,Variant,protein stability index
1,KLLVVDRTRRLGWMKNGANDVKHH,2.6
2,KLLVVDRTRRLGYMKNGANDVKHH,3
3,KLLVVDRTRRLGNAKNGANDVKHH,3.4
4,KLLVVDRTRRLGNCKNGANDVKHH,2.85
5,KLLVVDRTRRLGNDKNGANDVKHH,4.09
6,KLLVVDRTRRLGNEKNGANDVKHH,3.8
7,KLLVVDRTRRLGNFKNGANDVKHH,2.99
8,KLLVVDRTRRLGNGKNGANDVKHH,3.74
9,KLLVVDRTRRLGNHKNGANDVKHH,3.54
10,KLLVVDRTRRLGNIKNGANDVKHH,3.31
11,KLLVVDRTRRLGNKKNGANDVKHH,3.85
12,KLLVVDRTRRLGNLKNGANDVKHH,2.89
13,KLLVVDRTRRLGNNKNGANDVKHH,3.67
14,KLLVVDRTRRLGNPKNGANDVKHH,2.98
15,KLLVVDRTRRLGNQKNGANDVKHH,3.62
16,KLLVVDRTRRLGNRKNGANDVKHH,2.77
17,KLLVVDRTRRLGNSKNGANDVKHH,3.37
18,KLLVVDRTRRLGNTKNGANDVKHH,3
19,KLLVVDRTRRLGNVKNGANDVKHH,3.22
20,KLLVVDRTRRLGNWKNGANDVKHH,2.62
